T1: IL13Rα2 glycine-scan mutant EP2 (human, UniProt Q14627 27-343)
T1 construct: The changed residues (60-62) are inferred in the same way as for EP1
T1 chain: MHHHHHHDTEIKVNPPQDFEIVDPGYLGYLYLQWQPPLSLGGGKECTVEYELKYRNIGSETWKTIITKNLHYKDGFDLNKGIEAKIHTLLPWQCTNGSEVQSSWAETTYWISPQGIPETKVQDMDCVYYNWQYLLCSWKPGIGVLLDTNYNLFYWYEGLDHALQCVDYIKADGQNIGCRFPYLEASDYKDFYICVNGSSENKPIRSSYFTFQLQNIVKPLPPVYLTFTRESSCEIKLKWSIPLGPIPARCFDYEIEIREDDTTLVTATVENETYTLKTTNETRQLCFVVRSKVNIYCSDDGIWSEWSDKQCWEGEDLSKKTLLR

T2: IL13Rα2 glycine-scan mutant EP1 (human, UniProt Q14627 27-343, limits assumed)
T2 chain: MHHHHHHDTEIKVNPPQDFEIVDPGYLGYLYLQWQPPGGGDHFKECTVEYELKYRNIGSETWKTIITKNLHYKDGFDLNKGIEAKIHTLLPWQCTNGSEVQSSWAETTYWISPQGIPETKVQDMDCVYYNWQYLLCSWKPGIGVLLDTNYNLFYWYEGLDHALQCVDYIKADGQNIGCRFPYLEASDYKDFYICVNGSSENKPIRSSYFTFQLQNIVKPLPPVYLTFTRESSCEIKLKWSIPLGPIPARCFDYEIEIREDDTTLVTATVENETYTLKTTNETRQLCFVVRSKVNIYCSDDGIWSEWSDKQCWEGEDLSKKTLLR

T3: IL13Rα2 glycine-scan mutant EP3 (human, UniProt Q14627 27-343)
T3 construct: The changed residues (63-65) are inferred in the same way as for EP1
T3 chain: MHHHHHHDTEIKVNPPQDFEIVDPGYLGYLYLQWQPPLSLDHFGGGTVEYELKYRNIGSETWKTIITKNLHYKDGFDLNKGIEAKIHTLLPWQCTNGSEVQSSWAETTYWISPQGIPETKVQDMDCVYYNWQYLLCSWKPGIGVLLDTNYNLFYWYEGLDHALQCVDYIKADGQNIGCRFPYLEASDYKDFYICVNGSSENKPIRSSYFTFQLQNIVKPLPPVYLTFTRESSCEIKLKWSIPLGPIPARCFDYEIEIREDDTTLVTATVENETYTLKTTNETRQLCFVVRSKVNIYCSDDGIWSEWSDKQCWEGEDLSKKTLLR

T4: IL13Rα2 expressed in lung cancer cells A549 and H460 (fixed, permeabilised cells) (UniProt Q14627 27-380, limits assumed)
T4 construct: whole, on cells; A549 and H460 are human lung cancer lines; also called A549和H460细胞中的IL13Rα2
T4 sequence (looked up): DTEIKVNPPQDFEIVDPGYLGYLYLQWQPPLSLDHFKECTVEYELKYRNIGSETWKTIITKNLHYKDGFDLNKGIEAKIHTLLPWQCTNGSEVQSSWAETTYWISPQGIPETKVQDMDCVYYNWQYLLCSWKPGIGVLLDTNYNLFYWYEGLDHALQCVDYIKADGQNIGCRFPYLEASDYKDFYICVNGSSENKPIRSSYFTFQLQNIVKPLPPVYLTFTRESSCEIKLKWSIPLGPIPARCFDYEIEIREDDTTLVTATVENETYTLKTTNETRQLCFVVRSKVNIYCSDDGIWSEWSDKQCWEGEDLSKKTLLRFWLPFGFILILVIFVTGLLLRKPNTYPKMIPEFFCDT

T5: IL13Rα2 deletion mutant D1-1c (15 residues …, 57-71, deleted) (human, UniProt Q14627 27-343)
T5 construct: also called 突变的IL13Rα2蛋白的D1-1c
T5 sequence: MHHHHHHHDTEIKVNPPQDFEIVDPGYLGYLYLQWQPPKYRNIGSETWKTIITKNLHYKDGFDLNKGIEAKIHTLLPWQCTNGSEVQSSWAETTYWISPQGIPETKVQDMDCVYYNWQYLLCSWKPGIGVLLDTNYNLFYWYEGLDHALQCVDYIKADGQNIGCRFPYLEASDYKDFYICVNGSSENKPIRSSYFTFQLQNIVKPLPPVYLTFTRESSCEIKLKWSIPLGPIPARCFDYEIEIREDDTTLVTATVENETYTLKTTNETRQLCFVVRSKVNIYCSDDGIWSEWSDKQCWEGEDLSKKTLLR

T6: IL13Rα2 antigen with His tag, expressed from pMAL in E. coli (IL13Rα2-HIS) (human) (UniProt Q14627)
T6 sequence: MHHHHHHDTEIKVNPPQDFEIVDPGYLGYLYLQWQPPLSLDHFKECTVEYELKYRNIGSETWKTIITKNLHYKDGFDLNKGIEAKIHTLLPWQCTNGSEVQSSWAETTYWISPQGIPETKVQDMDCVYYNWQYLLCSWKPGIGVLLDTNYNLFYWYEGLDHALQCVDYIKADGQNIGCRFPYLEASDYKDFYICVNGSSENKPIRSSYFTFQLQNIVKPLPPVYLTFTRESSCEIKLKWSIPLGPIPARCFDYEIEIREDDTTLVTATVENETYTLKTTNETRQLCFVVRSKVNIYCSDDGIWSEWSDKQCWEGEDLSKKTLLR

T7: IL13Rα2 antigen with His tag, expressed from pMAL in E. coli (IL13Rα2-HIS) (human, UniProt Q14627 27-343)
T7 construct: Purified on Ni-NTA; also called IL13Rα2抗原; pMAL-IL13Rα2
T7 sequence: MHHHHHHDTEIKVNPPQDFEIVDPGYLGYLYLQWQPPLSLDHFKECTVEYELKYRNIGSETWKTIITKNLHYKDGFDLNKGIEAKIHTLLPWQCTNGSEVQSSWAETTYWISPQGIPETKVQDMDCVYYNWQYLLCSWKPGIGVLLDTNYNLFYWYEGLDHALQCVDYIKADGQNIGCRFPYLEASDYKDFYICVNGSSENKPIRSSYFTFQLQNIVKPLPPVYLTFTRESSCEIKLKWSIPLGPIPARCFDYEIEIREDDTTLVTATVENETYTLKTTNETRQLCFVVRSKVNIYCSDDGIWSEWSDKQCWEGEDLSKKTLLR


Assays:
[1] = molecular target: T1, IL13Rα2 glycine-scan mutant EP2; assay: Western blot, glycine scan mutants
[2] = molecular target: T2, IL13Rα2 glycine-scan mutant EP1; assay: Western blot, glycine scan mutants
[3] = molecular target: T3, IL13Rα2 glycine-scan mutant EP3; assay: Western blot, glycine scan mutants
[4] = molecular target: T4, IL13Rα2 expressed in lung cancer cells …; assay: immunofluorescence on fixed, permeabilised cells
[5] = molecular target: T5, IL13Rα2 deletion mutant D1-1c (15 …); assay: Western blot
[6] = molecular target: T6, IL13Rα2 antigen with His tag, expressed from pMAL in E. coli (IL13Rα2-HIS) (human); assay: indirect ELISA, antigen coated at 3 μg/ml, serial dilutions of the antibody
[7] = molecular target: T7, IL13Rα2 antigen with His tag, expressed …; assay: Western blot (Fig. 24)

| binding result [1] | binding result [2] | binding result [3] | binding result [4] | binding result [5] | 效价 (titer) (fold dilution) [6] | binding result [7] | Binder |
| --- | --- | --- | --- | --- | --- | --- | --- |
| no binding | no binding | no binding | binds | no binding | > 10000 | – | anti-IL13Rα2 monoclonal antibody mAb15D8 (mouse, from hybridoma) (antibody, mouse IgG1, kappa, V domains shown, Purified on Protein G; also called m15D8; 单克隆抗体15D8) VH: QVTLKESGPGILQPSQTLSLTCSFSGFSLSPSGMGVSWIRQPSGKGLEWLAHIYWDDDKLYNPSLKSRLTISKDTSSNQVFLKITSVDTADTATYYCARRGLRLRAMDYWGQGTSVTVSS VL: DIVLTQSPASLAVSLGQRATISCRASESVDSYGNSFMHWYQQKPGQPPKLLIYRTSNLESGIPARFSGSGSRTDFTLTINPVEADDVATYYCQQSNEDPFTFGSGTKLEIKR |
| – | – | – | – | – | – | binds | recombinantly expressed monoclonal antibody mAb15D8 (293F cells transiently transfected with p15D8MusE) (antibody, mouse IgG1, kappa, V domains shown, also called 重组表达单克隆抗体mAb15D8; 重组表达抗体) VH: QVTLKESGPGILQPSQTLSLTCSFSGFSLSPSGMGVSWIRQPSGKGLEWLAHIYWDDDKLYNPSLKSRLTISKDTSSNQVFLKITSVDTADTATYYCARRGLRLRAMDYWGQGTSVTVSS VL: DIVLTQSPASLAVSLGQRATISCRASESVDSYGNSFMHWYQQKPGQPPKLLIYRTSNLESGIPARFSGSGSRTDFTLTINPVEADDVATYYCQQSNEDPFTFGSGTKLEIKR |
